# In PMC13722417 (2026):
# Values joined by “and” are separate entries in the source; they are usually repeats but may differ in a detail not shown here. Identical values can stand only once.
# B1: TIE1 21-760 (protein)
# chain: AAVDLTLLANLRLTDPQRFFLTCVSGEAGAGRGSDAWGPPLLLEKDDRIVRTPPGPPLRLARNGSHQVTLRGFSKPSDLVGVFSCVGGAGARRTRVIYVHNSPGAHLLPDKVTHTVNKGDTAVLSARVHKEKQTDVIWKSNGSYFYTLDWHEAQDGRFLLQLPNVQPPSSGIYSATYLEASPLGSAFFRLIVRGCGAGRWGPGCTKECPGCLHGGVCHDHDGECVCPPGFTGTRCEQACREGRFGQSCQEQCPGISGCRGLTFCLPDPYGCSCGSGWRGSQCQEACAPGHFGADCRLQCQCQNGGTCDRFSGCVCPSGWHGVHCEKSDRIPQILNMASELEFNLETMPRINCAAAGNPFPVRGSIELRKPDGTVLLSTKAIVEPEKTTAEFEVPRLVLADSGFWECRVSTSGGQDSRRFKVNVKVPPVPLAAPRLLTKQSRQLVVSPLVSFSGDGPISTVRLHYRPQDSTMDWSTIVVDPSENVTLMNLRPKTGYSVRVQLSRPGEGGEGAWGPPTLMTTDCPEPLLQPWLEGWHVEGTDRLRVSWSLPLVPGPLVGDGFLLRLWDGTRGQERRENVSSPQARTALLTGLTPGTHYQLDVQLYHCTLLGPASPPAHVLLPPSGPPAPRHLHAQALSDSEIQLTWKHPEALPGPISKYVVEVQVAGGAGDPLWIDVDRPEETSTIIRGLNASTRYLFRMRASIQGLGDWSNTVEESTLGNGLQAEGPVQESRAAEEGLDQQ
# What was measured:
# TIE1 21-760 = target: B1; experiment: SPR
# SVEP1 919-3571 [1] = target: SVEP1 919-3571 (Homo sapiens, UniProt Q4LDE5, ANG2 present); experiment: ELISA
# SVEP1 919-3571 [2] = target: SVEP1 919-3571 (Homo sapiens, UniProt Q4LDE5); experiment: ELISA
# SVEP1 919-3571 [3] = target: SVEP1 919-3571 (Homo sapiens, UniProt Q4LDE5, ANG1 present); experiment: ELISA
Kd (TIE1 21-760) [nM],Kd (SVEP1 919-3571 [1]) [nM],Kd (SVEP1 919-3571 [2]),Kd (SVEP1 919-3571 [3]) [nM],Binder
62.5,,,,SVEP1 2261-2890 (protein) PLDCGKPPPIQNGFMKGENFEVGSKVQFFCNEGYELVGDSSWTCQKSGKWNKKSNPKCMPAKCPEPPLLENQLVLKELTTEVGVVTFSCKEGHVLQGPSVLKCLPSQQWNDSFPVCKIVLCTPPPLISFGVPIPSSALHFGSTVKYSCVGGFFLRGNSTTLCQPDGTWSSPLPECVPVECPQPEEIPNGIIDVQGLAYLSTALYTCKPGFELVGNTTTLCGENGHWLGGKPTCKAIECLKPKEILNGKFSYTDLHYGQTVTYSCNRGFRLEGPSALTCLETGDWDVDAPSCNAIHCDSPQPIENGFVEGADYSYGAIIIYSCFPGFQVAGHAMQTCEESGWSSSIPTCMPIDCGLPPHIDFGDCTKLKDDQGYFEQEDDMMEVPYVTPHPPYHLGAVAKTWENTKESPATHSSNFLYGTMVSYTCNPGYELLGNPVLICQEDGTWNGSAPSCISIECDLPTAPENGFLRFTETSMGSAVQYSCKPGHILAGSDLRLCLENRKWSGASPRCEAISCKKPNPVMNGSIKGSNYTYLSTLYYECDPGYVLNGTERRTCQDDKNWDEDEPICIPVDCSSPPVSANGQVRGDEYTFQKEIEYTCNEGFLLEGARSRVCLANGSWSGATPDCVPVR
,55.6,189 nM and 147 nM,82.4,B1
